# Measured values as given in US10023484B2, “Use of peracetic acid/hydrogen peroxide and peroxide-reducing agents for treatment of drilling fluids, frac fluids, flowback water and disposal water” (Ecolab USA Inc., priority 2012, dated 2018).
# Assays:
# [1] = POAA and H2O2 loss with NiMo peroxide-reducing agent (Example 20); format: physicochemical; conditions: 10 g NiMo
# Excerpt: (§1) Various additional inorganic metals and metal compounds were further evaluated for use as peroxide decomposition catalysts (e.g. peroxide-reducing agents) according to the methods of the invention. The metals were provided as solid catalysts to POAA solutions.
# [2] = POAA and H2O2 loss with NiW peroxide-reducing agent (Example 20); format: physicochemical; conditions: 10 g NiW
# Excerpt: as §1
# [3] = POAA and H2O2 loss with Mo peroxide-reducing agent (Example 20); format: physicochemical; conditions: 10 g Mo
# Excerpt: as §1
# [4] = POAA and H2O2 loss with CoMo peroxide-reducing agent (Example 20); format: physicochemical; conditions: 10 g CoMo
# Excerpt: as §1
# [5] = Hydrogen peroxide reduction by catalase in 2%, 3%, 5% peracid compositions, iodometric assay (Example 13); format: physicochemical
# Protocol: The concentration of peracid compositions was evaluated to determine the peroxide-reducing capability of enzymes. A catalase enzyme was evaluated for efficacy in reducing hydrogen peroxide at varying concentrations under increasingly concentrated peracid compositions. The commercially-available peracid (POAA) composition EnviroSan (Ecolab, Inc., St. Paul, Minn.) was evaluated using catalase enzymes added to 2%, 3%, and 5% peracid compositions. The catalase enzymes were added to the POAA solution and gently stirred under ambient conditions. After the addition of catalase, the stirring was discontinued, and the samples were taken for iodometric assay.
# [6] = Catalase (ES2000) amount needed in treated water source, iodometric titration (Example 15); format: physicochemical
# Protocol: Field of use applications were analyzed to determine the amount of a peroxide-reducing enzyme necessary to obtain desired concentrations of both peracid and hydrogen peroxide in a treated water source. EnviroSan (POAA) peracid composition was added to water to reach the targeted POAA concentrations set forth in Table 18, and the concentration of both POAA and H2O2 were confirmed by iodometric titration. Then catalase (ES2000) was added to the solution, and the sample was stored under ambient conditions. The concentration of POAA and H2O2 were monitored by the iodometric conditions.
# [7] = tested on: produced water samples (planktonic bacteria); test: Planktonic kill study, ATP quantification assay; format: cell-based; conditions: PAA/H2O2 25 ppm
# Protocol: Planktonic kill studies were performed as an evaluation of biocide efficiency for PAA/H2O2 and PAA/H2O2/Catalase applications. Briefly, produced water samples were used to test the kill efficiency of PAA/H2O2 at the following dosages: 25, 50, 75, 150 and 300 ppm PAA. Concentration of catalase was fixed at 1000 ppm. The contact time was set to 10 and 60 minutes. After contact time, bacterial enumeration was performed using ATP quantification assay. Bacterial enumeration was calculated at the end of the appropriate time and biocide efficacy determined by comparison to an untreated sample.
# [8] = Field application of catalase (ES 2000) in pond water: room temperature, sunlight, shielded (Example 22); format: physicochemical
# Protocol: A field of use application was analyzed to determine efficacy of the peroxide-reducing catalase enzyme in pond waters under ambient conditions. Catalase (ES 2000) was used in a pond water source (370000 barrel (bbl.)) to reduce/eliminate H2O2 in a POAA peracid composition. The pond water when sampled contained both POAA and H2O2. The treatments analyzed were based on established laboratory data, which at 1 ppm use level selectively eliminated H2O2 to zero within 4 hours. […] Therefore, 100 gram samples of the pond water were used to add various levels of either 1 ppm catalase (Table 33) or 2 ppm catalase (Table 34).
# The samples were then stored at various conditions identified: ambient room temperature, outside under sunlight, outside shielded from sunlight. The level of hydrogen peroxide was assayed at various times (shown at 0 hours and 2 hours) to check the functionality of the catalase peroxide-reducing agent. As referred to in the Tables, the following measurements are set forth as follows: EP1 V (ml 0.05N Na2S2O3) and EP2 V (ml 0.05N Na2S2O3).
# [9] = 2% POAA, 1500 ppm Catalase, 0 min.
# [10] = 2% POAA, 1500 ppm Catalase, 6.5 min.
# [11] = 3% POAA, 1500 ppm Catalase, 0 min.
# [12] = 3% POAA, 1500 ppm Catalase, 6.5 min.
# [13] = 3% POAA, 1500 ppm Catalase, 10 min.
# [14] = 3% POAA, 1500 ppm Catalase, 15 min.
# [15] = 3% POAA, 2500 ppm Catalase, 0 min.
# [16] = 3% POAA, 2500 ppm Catalase, 6.5 min.
# [17] = 3% POAA, 2500 ppm Catalase, 10 min.
# [18] = 3% POAA, 2500 ppm Catalase, 15 min.
# [19] = 5% POAA, 1500 ppm Catalase, 0 min.
# [20] = 5% POAA, 1500 ppm Catalase, 6.5 min.
# [21] = 0.5 ppm catalase, series starting at 14.6 ppm POAA, 0 hr
# [22] = 0.5 ppm catalase, series starting at 14.6 ppm POAA, 1 hr
# [23] = 0.5 ppm catalase, series starting at 14.6 ppm POAA, 2 hr
# [24] = 0.5 ppm catalase, series starting at 14.6 ppm POAA, 3.6 hr
# [25] = 0.5 ppm catalase, series starting at 31.1 ppm POAA, 0 hr
# [26] = 0.5 ppm catalase, series starting at 31.1 ppm POAA, 1 hr
# [27] = 0.5 ppm catalase, series starting at 31.1 ppm POAA, 2 hr
# [28] = 0.5 ppm catalase, series starting at 31.1 ppm POAA, 3.6 hr
# [29] = 1.0 ppm catalase, series starting at 14.8 ppm POAA, 0 hr
# [30] = 1.0 ppm catalase, series starting at 14.8 ppm POAA, 1 hr
# [31] = 1.0 ppm catalase, series starting at 14.8 ppm POAA, 2 hr
# [32] = 1.0 ppm catalase, series starting at 14.8 ppm POAA, 3.6 hr
# [33] = 1.0 ppm catalase, series starting at 30.1 ppm POAA, 0 hr
# [34] = 1.0 ppm catalase, series starting at 30.1 ppm POAA, 1 hr
# [35] = 1.0 ppm catalase, series starting at 30.1 ppm POAA, 2 hr
# [36] = 1.0 ppm catalase, series starting at 30.1 ppm POAA, 3.6 hr
# [37] = 1 ppm catalase, Ambient Room, Time 0.00 hr
# [38] = 1 ppm catalase, Ambient Room, Time 2.00 hr
# [39] = 1 ppm catalase, Outside shield from the sunlight, Time 0.00 hr
# [40] = 1 ppm catalase, Outside shield from the sunlight, Time 2.00 hr
# [41] = 1 ppm catalase, Outside under the sunlight, Time 0.00 hr
# [42] = 1 ppm catalase, Outside under the sunlight, Time 2.00 hr
# [43] = 2 ppm catalase, Ambient Room, Time 0.00 hr
# [44] = 2 ppm catalase, Ambient Room, Time 2.00 hr
# [45] = 2 ppm catalase, Outside shield from the sunlight, Time 0.00 hr
# [46] = 2 ppm catalase, Outside shield from the sunlight, Time 2.00 hr
# [47] = 2 ppm catalase, Outside under the sunlight, Time 0.00 hr
# [48] = 2 ppm catalase, Outside under the sunlight, Time 2.00 hr
compound,measurement,setting,value
OO [H2O2],H2O2 Concentration,[1]; Time 0,1615
same,H2O2 Concentration,[1]; Time 15,1581
same,H2O2 Concentration,[1]; Time 30,1555.5
same,H2O2 Concentration,[1]; Time 45,1530
same,H2O2 Concentration,[1]; Time 60,1496
same,H2O2 Concentration,[2]; Time 0,1615
same,H2O2 Concentration,[2]; Time 15,1581
same,H2O2 Concentration,[2]; Time 30,1598
same,H2O2 Concentration,[2]; Time 45,1615
same,H2O2 Concentration,[2]; Time 60,1615
same,H2O2 Concentration,[3]; Time 0,1615
same,H2O2 Concentration,[3]; Time 15,1334.5
same,H2O2 Concentration,[3]; Time 30,1181.5
same,H2O2 Concentration,[3]; Time 45,986
same,H2O2 Concentration,[3]; Time 60,841.5
same,H2O2 Concentration,[4]; Time 0,1615
same,H2O2 Concentration,[4]; Time 15,1343
same,H2O2 Concentration,[4]; Time 30,1156
same,H2O2 Concentration,[4]; Time 45,994.5
same,H2O2 Concentration,[4]; Time 60,841.5
Catalase,H2O2,[5]; [9],1.36% H2O2
same,POAA,[5]; [9],2.0% POAA
same,H2O2,[5]; [10],0.08% H2O2
same,POAA,[5]; [10],2.05% POAA
same,H2O2,[5]; [11],2.04% H2O2
same,POAA,[5]; [11],3.0% POAA
same,H2O2,[5]; [12],0.33% H2O2
same,POAA,[5]; [12],2.97% POAA
same,H2O2,[5]; [13],0.23% H2O2
same,POAA,[5]; [13],2.83% POAA
same,H2O2,[5]; [14],0.21% H2O2
same,POAA,[5]; [14],2.95% POAA
same,H2O2,[5]; [15],2.04% H2O2
same,POAA,[5]; [15],2.0% POAA
same,H2O2,[5]; [16],0.33% H2O2
same,POAA,[5]; [16],2.99% POAA
same,H2O2,[5]; [17],0.23% H2O2
same,POAA,[5]; [17],2.95% POAA
same,H2O2,[5]; [18],0.21% H2O3
same,POAA,[5]; [18],2.87% POAA
same,H2O2,[5]; [19],3.40% H2O2
same,POAA,[5]; [19],5.0% POAA
same,H2O2,[5]; [20],3.81% H2O2
same,POAA,[5]; [20],4.96% POAA
same,H2O2 (ppm),[6]; [21],12.0 ppm
same,POAA (ppm),[6]; [21],14.6 ppm
same,H2O2 (ppm),[6]; [22],7.5 ppm
same,POAA (ppm),[6]; [22],15.0 ppm
same,H2O2 (ppm),[6]; [23],6.5 ppm
same,POAA (ppm),[6]; [23],14.3 ppm
same,H2O2 (ppm),[6]; [24],1.8 ppm
same,POAA (ppm),[6]; [24],14.2 ppm
same,H2O2 (ppm),[6]; [25],22.8 ppm
same,POAA (ppm),[6]; [25],31.1 ppm
same,H2O2 (ppm),[6]; [26],12.2 ppm
same,POAA (ppm),[6]; [26],32.0 ppm
same,H2O2 (ppm),[6]; [27],7.8 ppm
same,POAA (ppm),[6]; [27],29.2 ppm
same,H2O2 (ppm),[6]; [28],3.4 ppm
same,POAA (ppm),[6]; [28],30.6 ppm
same,H2O2 (ppm),[6]; [29],12.6 ppm
same,POAA (ppm),[6]; [29],14.8 ppm
same,H2O2 (ppm),[6]; [30],3.7 ppm
same,POAA (ppm),[6]; [30],14.6 ppm
same,H2O2 (ppm),[6]; [31],1.1 ppm
same,POAA (ppm),[6]; [31],14.2 ppm
same,H2O2 (ppm),[6]; [32],0.4 ppm
same,POAA (ppm),[6]; [32],15.9 ppm
same,H2O2 (ppm),[6]; [33],23.3 ppm
same,POAA (ppm),[6]; [33],30.1 ppm
same,H2O2 (ppm),[6]; [34],7.6 ppm
same,POAA (ppm),[6]; [34],31.0 ppm
same,H2O2 (ppm),[6]; [35],2.3 ppm
same,POAA (ppm),[6]; [35],29.6 ppm
same,H2O2 (ppm),[6]; [36],0.0 ppm
same,POAA (ppm),[6]; [36],29.3 ppm
same,increase of biocide efficiency by addition of 1000 ppm catalase,[7]; after 10 minutes,48%
same,increase of biocide efficiency by addition of 1000 ppm catalase,[7]; after 60 minutes,23%
same,H2O2,[8]; [37],6.8 ppm
same,POAA,[8]; [37],5.7 ppm
same,H2O2,[8]; [38],1.3 ppm
same,POAA,[8]; [38],5.7 ppm
same,H2O2,[8]; [39],6.8 ppm
same,POAA,[8]; [39],5.7 ppm
same,H2O2,[8]; [40],0.9 ppm
same,POAA,[8]; [40],5.7 ppm
same,H2O2,[8]; [41],6.8 ppm
same,POAA,[8]; [41],5.7 ppm
same,H2O2,[8]; [42],6.8 ppm
same,POAA,[8]; [42],4.75 ppm
same,H2O2,[8]; [43],6.8 ppm
same,POAA,[8]; [43],5.7 ppm
same,H2O2,[8]; [44],0.0 ppm
same,POAA,[8]; [44],5.7 ppm
same,H2O2,[8]; [45],6.8 ppm
same,POAA,[8]; [45],5.7 ppm
same,H2O2,[8]; [46],0.0 ppm
same,POAA,[8]; [46],5.7 ppm
same,H2O2,[8]; [47],6.8 ppm
same,POAA,[8]; [47],5.7 ppm
same,H2O2,[8]; [48],4.3 ppm
same,POAA,[8]; [48],4.75 ppm
